The target in the assay is Runx2 expressed from pCMV5 Cbfa1 in transfected cells. Briefly: cell-based or functional assay.

Consider one substance from patent publication US20060294600A1.

Consider “Fhl2 expressed from pCMX Fhl2 in Cos-7 cells (from UniProt Q14192 1-279)”, for which the transcriptional activity of Runx2 (luciferase reporter, transient transfection in Cos-7 cells; 6xOSE2 artificial promoter and human osteocalcin promoter) came out at 3 fold.
